1 molecule from article PMC8184781 (2021) can be followed below.

Ends that are not written are not given here.

In this assay the target is T1, RDM15 Tudor domain (residues 598-662), wild type (Arabidopsis thaliana).
T1 chain: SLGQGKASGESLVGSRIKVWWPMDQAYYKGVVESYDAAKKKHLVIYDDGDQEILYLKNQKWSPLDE
The assay is described as follows: ITC. (ITC needs no label: the signal is the heat of the interaction.)

The Kd is the constant that tells how readily two partners part at equilibrium. A low value points to higher affinity.

B1: H3(1-15) K4me1 peptide (peptide)
chain: ARTK(Me)QTARKSTGGKA
B1 had a dissociation constant Kd of 1.47 µM. This lies in the single-digit micromolar range.
